How the values were obtained:
[1] = target: human recombinant CD64 (R&D Systems) (human) (UniProt P12314); assay: SPR (Biacore T200); construct captured on Protein A, soluble CD64 as analyte
FcγRIIIaV158 = FcγRIIIaV158 (UniProt P08637); assay: TR-FRET competition with labeled competitor antibody on cells bearing the receptor
FcγRIIaH131 (human) = FcγRIIaH131 (human) (UniProt P12318); assay: as above
FcγRIIb = FcγRIIb (UniProt P31994); assay: as above
FcγRIIb, sequence (P31994 43-310 limits assumed): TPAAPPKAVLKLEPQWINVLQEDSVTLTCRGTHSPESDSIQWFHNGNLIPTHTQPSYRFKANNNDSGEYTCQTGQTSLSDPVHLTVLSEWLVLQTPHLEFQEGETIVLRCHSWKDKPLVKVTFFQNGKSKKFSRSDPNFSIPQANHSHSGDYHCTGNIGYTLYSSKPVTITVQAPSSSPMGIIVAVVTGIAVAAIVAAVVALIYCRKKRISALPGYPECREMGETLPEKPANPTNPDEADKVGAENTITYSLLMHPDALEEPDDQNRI

FcγRIIaH131 (human), sequence (P12318 34-317): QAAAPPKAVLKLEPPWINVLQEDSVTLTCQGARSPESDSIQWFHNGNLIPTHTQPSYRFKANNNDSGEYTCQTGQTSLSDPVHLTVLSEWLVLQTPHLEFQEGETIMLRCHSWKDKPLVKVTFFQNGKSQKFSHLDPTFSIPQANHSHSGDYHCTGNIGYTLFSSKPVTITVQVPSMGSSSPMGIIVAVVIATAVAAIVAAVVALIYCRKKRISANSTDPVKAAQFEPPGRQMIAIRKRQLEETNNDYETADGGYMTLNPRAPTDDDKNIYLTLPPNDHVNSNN
human recombinant CD64 (R&D Systems) (human), sequence (P12314 16-288 limits assumed): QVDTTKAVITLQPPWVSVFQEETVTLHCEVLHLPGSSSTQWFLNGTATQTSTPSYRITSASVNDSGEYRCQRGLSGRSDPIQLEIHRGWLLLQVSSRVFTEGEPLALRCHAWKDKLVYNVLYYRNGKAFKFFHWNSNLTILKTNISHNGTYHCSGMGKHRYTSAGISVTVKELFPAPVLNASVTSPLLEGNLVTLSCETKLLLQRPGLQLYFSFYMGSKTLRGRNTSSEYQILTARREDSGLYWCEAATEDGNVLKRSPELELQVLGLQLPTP
FcγRIIIaV158, sequence (P08637 17-254 F176V limits assumed): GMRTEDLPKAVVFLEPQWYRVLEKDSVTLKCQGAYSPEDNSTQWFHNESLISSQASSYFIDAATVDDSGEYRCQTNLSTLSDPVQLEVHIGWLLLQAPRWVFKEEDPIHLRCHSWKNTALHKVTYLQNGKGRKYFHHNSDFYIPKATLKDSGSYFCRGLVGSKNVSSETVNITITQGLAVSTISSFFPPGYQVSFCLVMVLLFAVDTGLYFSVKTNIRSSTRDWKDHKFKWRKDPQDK

CD64 Valency by SPR [1]: 1.5
IC50 (FcγRIIIaV158): 428 nM
IC50 (FcγRIIaH131 (human)): 1270 nM
IC50 (FcγRIIb): 3290 nM
Substance: anti-CD20 monoclonal antibody (CDRs from Gazyva (obinutuzumab))

Reference: patent publication US20250346676A1
